Laboratory results as given in patent US20170260242, “METHOD FOR MODIFYING RNA BINDING PROTIEN USING PPR MOTIF” (Kyushu University, National University Corporation, published 2017).

Columns and labels:
[1] = target: T1, 5&6/5-G14A (Arabidopsis thaliana, UniProt Q9SF38 SEQ:124-197); assay: EMSA; position 14 not among those with 10-fold or more reduction (position-level); conditions: tags: N-terminal thioredoxin, C-terminal His; label: 32P-UTP internal
T1 chain: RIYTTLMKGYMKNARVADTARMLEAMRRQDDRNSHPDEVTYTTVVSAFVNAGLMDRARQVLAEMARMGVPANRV
Method: (§1) The RNA binding activity of the mini PPR protein was analyzed by gel shift method. […] Then, to the reaction solution was added 4 microliters of 80% glycerol solution, and 10 μL was developed in 10% nondenaturing polyacrylamide gel comprising 1×TBE (89 mM Tris-HCl, 89 mM Boric acid, and 2 mM EDTA) and the gel was dried after electrophoresis. The radioactivity of RNA in the gel was measured with Bioimaging Analyzer BAS2000 (From Fujifilm). […] This is because the molecular weight of the 32P-labeled RNA/protein conjugate is larger than the molecular weight of the 32P-labeled RNA alone and thus mobility in electrophoresis had become slower. The binding between protein and RNA was quantified based on the results in FIGS. 1C-H (FIG. 1B), and evaluated by determining the disassociation constant (Kd) (FIG. 2C).
(§2) Using HCF152/5&6 as the model, mini PPR proteins having one amino acid substitution introduced centering on the aforementioned positions (1st, 2nd, 4th, 5th, 8th, 9th, 11th, and 12th) were prepared. The amino acid substitutions were based on substitution to alanine. […] Affinity with RNA was analyzed by the same gel shift method as above (FIG. 3), and the affinity with the RNA was evaluated with Kd (FIG. 4B).

[2] = target: T2, 5&6/5-G14D (Arabidopsis thaliana, UniProt Q9SF38 SEQ:124-197); assay: as above; conditions: tags: N-terminal thioredoxin, C-terminal His; label: 32P-UTP internal
T2 chain: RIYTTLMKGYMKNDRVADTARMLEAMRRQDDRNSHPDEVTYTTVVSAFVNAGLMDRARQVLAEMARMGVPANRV
Method: as §1, §2

[3] = target: T3, 5&6/5-T5I (Arabidopsis thaliana, UniProt Q9SF38 SEQ:123-204); assay: EMSA; position 5 not among those with 10-fold or more reduction (position-level); conditions: tags: N-terminal thioredoxin, C-terminal His; label: 32P-UTP internal
T3 chain: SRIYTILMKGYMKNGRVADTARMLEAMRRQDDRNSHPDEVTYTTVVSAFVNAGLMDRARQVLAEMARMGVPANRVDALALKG
Method: as §1, §2

[4] = target: T4, 5&6/5-K12N,6-N12K (Arabidopsis thaliana, UniProt Q9SF38 SEQ:124-197); assay: EMSA; affinity improved vs 5-K12N; value in figure; conditions: tags: N-terminal thioredoxin, C-terminal His; label: 32P-UTP internal
T4 chain: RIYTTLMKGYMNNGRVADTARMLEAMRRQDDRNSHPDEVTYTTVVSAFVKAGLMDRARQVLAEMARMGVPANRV
Method: (§3) The RNA binding activity of the mini PPR protein was analyzed by gel shift method. […] Then, to the reaction solution was added 4 microliters of 80% glycerol solution, and 10 μL was developed in 10% nondenaturing polyacrylamide gel comprising 1×TBE (89 mM Tris-HCl, 89 mM Boric acid, and 2 mM EDTA) and the gel was dried after electrophoresis. The radioactivity of RNA in the gel was measured with Bioimaging Analyzer BAS2000 (From Fujifilm). […] The binding between protein and RNA was quantified based on the results in FIGS. 1C-H (FIG. 1B), and evaluated by determining the disassociation constant (Kd) (FIG. 2C).

[5] = target: T5, 5&6/5-K12M,6-N12R (Arabidopsis thaliana, UniProt Q9SF38 SEQ:124-197); assay: EMSA; partly restored vs 6-N12R; conditions: tags: N-terminal thioredoxin, C-terminal His; label: 32P-UTP internal
T5 chain: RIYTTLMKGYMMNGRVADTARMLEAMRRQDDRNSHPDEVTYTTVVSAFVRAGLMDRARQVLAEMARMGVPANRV
Method: as §3

[6] = target: T6, 8&9/8-D8K (Arabidopsis thaliana, UniProt Q9SF38 SEQ:124-194); assay: EMSA; no change vs 8&9; conditions: tags: N-terminal thioredoxin, C-terminal His; label: 32P-UTP internal
T6 chain: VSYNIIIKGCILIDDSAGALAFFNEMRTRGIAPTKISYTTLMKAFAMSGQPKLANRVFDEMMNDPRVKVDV
Method: as §1

[7] = target: T7, 5&6/5-N13A (Arabidopsis thaliana, UniProt Q9SF38 SEQ:123-204); assay: EMSA; position 13 not among those with 10-fold or more reduction (position-level); conditions: tags: N-terminal thioredoxin, C-terminal His; label: 32P-UTP internal
T7 chain: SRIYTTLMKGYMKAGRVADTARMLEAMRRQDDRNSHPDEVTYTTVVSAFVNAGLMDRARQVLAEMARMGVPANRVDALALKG
Method: as §1, §2

[8] = target: T8, 5&6/5-N13L (Arabidopsis thaliana, UniProt Q9SF38 SEQ:123-204); assay: as above; conditions: tags: N-terminal thioredoxin, C-terminal His; label: 32P-UTP internal
T8 chain: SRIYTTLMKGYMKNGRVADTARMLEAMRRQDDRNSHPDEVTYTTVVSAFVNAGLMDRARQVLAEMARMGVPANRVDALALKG
Method: as §1, §2

[9] = target: T9, 8&9/9-K8D (Arabidopsis thaliana, UniProt Q9SF38 SEQ:124-194); assay: EMSA; no significant difference vs 8&9; conditions: tags: N-terminal thioredoxin, C-terminal His; label: 32P-UTP internal
T9 chain: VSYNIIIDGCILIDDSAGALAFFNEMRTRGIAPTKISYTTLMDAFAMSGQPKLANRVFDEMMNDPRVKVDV
Method: as §3

[10] = target: T10, 8&9/8-D8K,9-K8D (Arabidopsis thaliana, UniProt Q9SF38 SEQ:124-194); assay: EMSA; no significant difference vs 8&9; conditions: tags: N-terminal thioredoxin, C-terminal His; label: 32P-UTP internal
T10 chain: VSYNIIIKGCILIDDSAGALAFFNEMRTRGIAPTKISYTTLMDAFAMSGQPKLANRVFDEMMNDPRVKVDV
Method: as §3

[11] = target: T11, 5&6/5-K12H (Arabidopsis thaliana, UniProt Q9SF38 SEQ:124-197); assay: EMSA; Kd almost equivalent to wild type 5&6; value in figure; conditions: tags: N-terminal thioredoxin, C-terminal His; label: 32P-UTP internal
T11 chain: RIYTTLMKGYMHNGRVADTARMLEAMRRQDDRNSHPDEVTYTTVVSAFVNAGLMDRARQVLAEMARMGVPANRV
Method: as §1

[12] = target: T12, HCF152/10&11 (Arabidopsis thaliana, UniProt Q9SF38 SEQ:124-195); assay: EMSA; 6 mM MgCl2, 30 mM KCl, pH 7.9, 25 C; conditions: tags: N-terminal thioredoxin, C-terminal His; label: 32P-UTP internal
T12 sequence: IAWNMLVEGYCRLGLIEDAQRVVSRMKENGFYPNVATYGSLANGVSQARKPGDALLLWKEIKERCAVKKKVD
Method: as §3

[13] = target: T13, HCF152/8&9 (Arabidopsis thaliana, UniProt Q9SF38 SEQ:124-195); assay: EMSA; 6 mM MgCl2, 30 mM KCl, pH 7.9, 25 C; conditions: tags: N-terminal thioredoxin, C-terminal His; label: 32P-UTP internal
T13 chain: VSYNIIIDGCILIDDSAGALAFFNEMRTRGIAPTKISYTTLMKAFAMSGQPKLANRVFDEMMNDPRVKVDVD
Method: as §3

[14] = target: T14, 6&7/6-V1R (Arabidopsis thaliana, UniProt Q9SF38 SEQ:124-195); assay: EMSA; affinity improved vs 6&7; value in figure; conditions: tags: N-terminal thioredoxin, C-terminal His; label: 32P-UTP internal
T14 chain: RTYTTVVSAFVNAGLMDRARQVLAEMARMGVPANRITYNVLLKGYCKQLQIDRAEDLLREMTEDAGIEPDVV
Method: as §3

[15] = target: T15, 6&7/6-S8K (Arabidopsis thaliana, UniProt Q9SF38 SEQ:124-195); assay: EMSA; affinity improved vs 6&7; value in figure; conditions: tags: N-terminal thioredoxin, C-terminal His; label: 32P-UTP internal
T15 chain: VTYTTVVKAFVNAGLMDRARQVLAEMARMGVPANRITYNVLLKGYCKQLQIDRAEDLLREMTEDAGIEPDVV
Method: as §3

[16] = target: T16, 6&7/7-N4T (Arabidopsis thaliana, UniProt Q9SF38 SEQ:124-195); assay: EMSA; affinity improved vs 6&7; value in figure; conditions: tags: N-terminal thioredoxin, C-terminal His; label: 32P-UTP internal
T16 chain: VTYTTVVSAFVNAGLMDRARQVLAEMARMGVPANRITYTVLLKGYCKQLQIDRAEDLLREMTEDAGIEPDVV
Method: as §3

[17] = target: T17, HCF152/5&6 (Arabidopsis thaliana, UniProt Q9SF38 SEQ:124-197); assay: EMSA; 6 mM MgCl2, 30 mM KCl, pH 7.9, 25 C; conditions: tags: N-terminal thioredoxin, C-terminal His; label: 32P-UTP internal
T17 chain: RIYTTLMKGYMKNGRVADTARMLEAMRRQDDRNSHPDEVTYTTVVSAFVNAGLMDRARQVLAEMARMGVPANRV
Method: as §1

[18] = target: T18, 5&6/5-M11A (Arabidopsis thaliana, UniProt Q9SF38 SEQ:123-204); assay: EMSA; position 11 not among those with 10-fold or more reduction (position-level); conditions: tags: N-terminal thioredoxin, C-terminal His; label: 32P-UTP internal
T18 chain: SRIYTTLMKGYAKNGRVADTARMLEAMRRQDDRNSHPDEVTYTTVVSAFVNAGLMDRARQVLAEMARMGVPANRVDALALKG
Method: as §1, §2

[19] = target: T19, 5&6/5-M11I (Arabidopsis thaliana, UniProt Q9SF38 SEQ:123-204); assay: as above; conditions: tags: N-terminal thioredoxin, C-terminal His; label: 32P-UTP internal
T19 chain: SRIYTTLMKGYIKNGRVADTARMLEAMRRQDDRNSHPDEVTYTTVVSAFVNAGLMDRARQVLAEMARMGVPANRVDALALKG
Method: as §1, §2

[20] = target: T17, HCF152/5&6; assay: EMSA; A>G>U; 200 nM protein; conditions: tags: N-terminal thioredoxin, C-terminal His; label: 5'-32P
Method: (§4) The binding specificity of the mini PPR proteins were analyzed by gel shift method. […] Then, to the reaction solution was added 4 μl of 80% glycerol solution, and 10 μL was developed in 10% nondenaturing polyacrylamide gel comprising 1×TBE (89 mM Tris-HCl, 89 mM Boric acid, and 2 mM EDTA) and the gel was dried after electrophoresis. The radioactivity of RNA in the gel was measured with Bioimaging Analyzer BAS2000 (From Fujifilm).

[21] = target: T20, HCF152/9&10 (Arabidopsis thaliana, UniProt Q9SF38 SEQ:124-194); assay: EMSA; A>G>U; 200 nM protein; conditions: tags: N-terminal thioredoxin, C-terminal His; label: 5'-32P
T20 sequence: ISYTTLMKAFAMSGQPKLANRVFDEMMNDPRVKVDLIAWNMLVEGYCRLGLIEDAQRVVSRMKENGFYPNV
Method: as §4

[22] = target: T21, HCF152/2&3 (Arabidopsis thaliana, UniProt Q9SF38 SEQ:124-194); assay: EMSA; A>G>U; 200 nM protein; conditions: tags: N-terminal thioredoxin, C-terminal His; label: 5'-32P
T21 sequence: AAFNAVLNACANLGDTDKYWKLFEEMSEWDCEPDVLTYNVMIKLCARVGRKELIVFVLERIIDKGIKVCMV
Method: as §4

[23] = target: T22, CAR4/6 (CRR4 PPR motif 6) (Arabidopsis thaliana); assay: EMSA; preference for A; conditions: tags: N-terminal thioredoxin, C-terminal His; label: 5'-32P
T22 chain: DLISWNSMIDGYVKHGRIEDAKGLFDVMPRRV

[24] = target: T23, CAR4/6 (I1L) (Arabidopsis thaliana, UniProt O22137 SEQ:124-155); assay: EMSA; did not bind A; conditions: tags: N-terminal thioredoxin, C-terminal His; label: 5'-32P
T23 chain: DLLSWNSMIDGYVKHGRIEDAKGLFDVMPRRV

[25] = target: T24, HCF152/7&8 (Arabidopsis thaliana, UniProt Q9SF38 SEQ:124-196); assay: EMSA; A>U>G; 200 nM protein; conditions: tags: N-terminal thioredoxin, C-terminal His; label: 5'-32P
T24 chain: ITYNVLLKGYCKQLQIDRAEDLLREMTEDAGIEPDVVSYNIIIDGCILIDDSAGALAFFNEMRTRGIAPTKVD
Method: as §4

B1: BD120 (petB) (ssRNA)
RNA: CUGGAUGGAAUUUCAGUGAAUUAGACUGAGAAGAAUCUUGAAGUUCUAGCUUUUAGCUCGAUACAAAAAAGUAAAGUAUGCAGGUCUAACAAUUUUAGCCUAUUCUCCUUUGGUAGUUCG
binding result [1]: binds
binding result [2]: binds
binding result [3]: binds
binding result [4]: binds
Kd [5]: 473 nM
binding result [6]: binds
binding result [7]: binds
binding result [8]: binds
binding result [9]: binds
binding result [10]: binds
binding result [11]: binds
Kd [12]: 5240 nM
Kd [13]: 5.3 nM
binding result [14]: binds
binding result [15]: binds
binding result [16]: binds
Kd [17]: 21.1 nM
binding result [18]: binds
binding result [19]: binds

AUCGAAAAAAAAAAAAAAAAAAAAAAAAA (ssRNA) [LA25]
binding result [20]: binds
binding result [21]: binds
binding result [22]: binds
binding result [23]: binds
binding result [24]: no binding
binding result [25]: binds
